Measured values taken from article PMC5173139, “Dual inhibition of ErbB1 and ErbB2 in cancer by recombinant human prolidase mutant hPEPD-G278D” (Oncotarget, 2016).
Substitutions are numbered along the chain they refer to. Names and notes keep the numbering of the source. Blank lines part the entries; values can stand above or below the molecule they belong to.

Assays:
ErbB1 ECD (Homo sapiens) = ErbB1 ECD (Homo sapiens) (UniProt P00533); conditions: cited from earlier work
ErbB2 (Homo sapiens) = ErbB2 (Homo sapiens) (UniProt P04626); conditions: cited from earlier work
[1] = target: human ErbB1 mutant lacking ECD subdomain 4 (aa #481-620) (human) (UniProt P00533); assay: ELISA; as a1 but with lysates of CHO-K1 cells transiently transfected for 24 h with wild-type ErbB1 or a subdomain deletion mutant; equal amounts of ErbB1 protein by immunoblot densitometry
[2] = target: human ErbB1 mutant lacking ECD subdomain 1 (aa #1-165) (human) (UniProt P00533); assay: as above
[3] = target: human ErbB1 mutant lacking ECD subdomain 3 (aa #311-480) (human) (UniProt P00533); assay: as above
[4] = target: T1, human ErbB1, full length, stably expressed in CHO-K1 cells (CHO-K1/ErbB1) (human, UniProt P00533 25-1210); assay: ELISA; wells coated with an antibody to the cytoplasmic tail of ErbB1; serially diluted His-tagged hPEPD or mutant plus CHO-K1/ErbB1 cell lysate (25 ug total protein), 37 C, 2 h; bound PEPD detected by biotin-conjugated anti-His antibody and streptavidin-HRP; CHO-K1 lysate as control; conditions: one partner purified
T1 construct: human ErbB1 (EGF receptor), full length; source: CHO-K1, stably transfected (pCMV6-A-ERBB1-Puro, puromycin selection), in lysate

Molecule: prolidase (PEPD) (from UniProt P12955)
Kd (ErbB1 ECD (Homo sapiens)): 5000 nM | Kd (ErbB2 (Homo sapiens)): 7.3 nM

fold reduction of binding affinity (Kd) against wild-type ErbB1 [1]: 1.4 fold | fold reduction of binding affinity (Kd) against wild-type ErbB1 [2]: 19.2 fold | fold reduction of binding affinity (Kd) against wild-type ErbB1 [3]: 7.4 fold
B1: hPEPD-G278D, enzymatically inactive mutant of recombinant human prolidase (enzyme)
chain: MAAATGPSFWLGNETLKVPLALFALNRQRLCERLRKNPAVQAGSIVVLQGGEETQRYCTDTGVLFRQESFFHWAFGVTEPGCYGVIDVDTGKSTLFVPRLPASHATWMGKIHSKEHFKEKYAVDDVQYVDEIASVLTSQKPSVLLTLRGVNTDSGSVCREASFDGISKFEVNNTILHPEIVECRVFKTDMELEVLRYTNKISSEAHREVMKAVKVGMKEYELESLFEHYCYSRGGMRHSSYTCICGSGENSAVLHYGHAGAPNDRTIQNGDMCLFDMDGEYYCFASDITCSFPANGKFTADQKAVYEAVLRSSRAVMGAMKPGVWWPDMHRLADRIHLEELAHMGILSGSVDAMVQAHLGAVFMPHGLGHFLGIDVHDVGGYPEGVERIDEPGLRSLRTARHLQPGMVLTVEPGIYFIDHLLDEALADPARASFLNREVLQRFRGFGGVRIEEDVVVTDSGIELLTCVPRTVEEIEACMAGCDKAFTPFSGPK

Kd [4]: 17.7 nM
B2: recombinant human prolidase (peptidase D), hPEPD (enzyme, UniProt P12955 1-493, looked up)
chain: B1 chain with D278G
notes: source: E. coli, as previously described [13, 17]; not shown: His tag, C-terminal, kept
